The text below walks through data of patent US20100092974A1, “METHODS FOR SCREENING FOR MODULATORS OF CCRL2” (The Board of Trustees of the Leland Stanford Junior …, priority 2008, published 2010).

What all share (format): cell-based
The subject of test [1] is mouse peritoneal mast cells. The test can be described thus: chemerin internalization assay, peritoneal mast cells. The settings on record: 10 nM His8-tagged serum form chemerin. The method, then: The primary cells were also stained with F4/80 and c-kit mAbs. Secondary anti-His6 PE was added to the cells and incubated for 30 minutes on ice. […] The cells were incubated for 5 minutes on ice with either PBS or acid wash buffer (0.2 M acetic acid, 0.5 M NaCl), and then analyzed by flow cytometry. Mast cells were identified by gating on SSC^high F4/80^− c-kit^+ cells.

Test [2] addresses T1, mCCRL2 (Mus musculus, UniProt O35457).
T1 construct: The coding regions of mCCRL2, huCCRL2, mCRTH2, and huCCR10 were amplified from genomic DNA; expressed in transfected cells
T1 sequence (O35457 1-360): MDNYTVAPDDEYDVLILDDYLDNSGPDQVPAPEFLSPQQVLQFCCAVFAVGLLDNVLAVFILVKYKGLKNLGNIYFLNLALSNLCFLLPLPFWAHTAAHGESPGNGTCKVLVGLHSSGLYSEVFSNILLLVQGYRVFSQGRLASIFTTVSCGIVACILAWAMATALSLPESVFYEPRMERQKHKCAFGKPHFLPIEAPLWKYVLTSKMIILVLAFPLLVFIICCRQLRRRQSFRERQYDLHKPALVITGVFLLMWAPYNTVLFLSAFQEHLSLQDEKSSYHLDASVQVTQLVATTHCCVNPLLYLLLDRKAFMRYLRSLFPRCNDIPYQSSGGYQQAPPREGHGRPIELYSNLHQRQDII
The test can be described thus: in vitro transwell chemotaxis, mCCRL2/L1.2 transfectants. The method, then: (§1) For migration experiments using cell lines, 2.5×10^5 cells/100 μl chemotaxis media (RPMI+10% fetal calf serum) were added to the top wells of 5-um pore transwell inserts (Costar, Corning, N.Y., USA), and test samples in 600 μl media were added to the bottom wells. After incubating the transwell plates for 1.5 hours at 37° C., the bottom wells were harvested and flow cytometry was used to assess migration. For primary cell chemotaxis, 1×10^6 cells/100 μl were added to the top well, and, following a 2 hour incubation at 37° C., polystyrene beads (15.0 μm diameter, Polysciences, Warrington, Pa., USA) were added to each well to facilitate normalization of the cell count. The cells were then stained for c-kit, F4/80, and/or CD11b expression and analyzed by flow cytometry. A ratio was generated and percent input migration was calculated.

Test [3] deals with T2, huCCRL2 (Homo sapiens, UniProt O00421).
T2 construct: The coding regions of mCCRL2, huCCRL2, mCRTH2, and huCCR10 were amplified from genomic DNA; expressed in transfected cells
T2 sequence (O00421 1-344): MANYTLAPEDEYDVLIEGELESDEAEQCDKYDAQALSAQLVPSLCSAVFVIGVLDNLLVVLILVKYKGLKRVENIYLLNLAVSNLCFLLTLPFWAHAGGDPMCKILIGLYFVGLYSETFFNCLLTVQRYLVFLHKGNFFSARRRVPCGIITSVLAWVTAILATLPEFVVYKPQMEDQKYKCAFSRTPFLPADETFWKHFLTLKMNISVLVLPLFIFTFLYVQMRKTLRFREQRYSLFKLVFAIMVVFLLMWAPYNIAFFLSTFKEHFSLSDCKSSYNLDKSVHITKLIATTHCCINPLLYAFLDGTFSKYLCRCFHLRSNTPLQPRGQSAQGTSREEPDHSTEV
The test can be described thus: in vitro transwell chemotaxis, huCCRL2-HA/L1.2 transfectants. The conditions noted are these: range of doses; CXCL12 and CCL19 act via endogenous CXCR4 and CCR7. The method, then:
as §1

Test [4] deals with T2, huCCRL2. The test can be described thus: receptor internalization assay, huCCRL2-HA L1.2. The settings on record: 100 nM chemerin, 15 min. The method, then: The cells were then washed with 200 μl PBS and stained with mouse anti-HA (Covance, Inc) or mIgG1 isotype control, followed by staining with secondary anti-mouse IgG1 PE, fixed, and analyzed by flow cytometry.
Test [5] has as its target T1, mCCRL2. In words: intracellular calcium mobilization, CCRL2/HEK293 transfectants. The settings on record: HEK293 background, alone or in combination. The method, then: Chemoattractant-stimulated Ca^2+-mobilization was performed following Alliance for Cell Signaling protocol ID PP00000210. Cells (3×10^6/mL) were loaded with 4 μM Fluo4-AM and 0.16% Pluronic acid F-127 (Molecular Probes) in modified Iscove's medium (Iscove's medium with 1% heat inactivated bovine calf serum and 2 mM L-glutamine, Invitrogen) for 30 minutes at 37° C. The samples were mixed every 10 minutes during loading, washed once, resuspended at up to 2×10^6/mL in the same buffer, and allowed to rest in the dark for 30 minutes at room temperature. Chemoattractant-stimulated change in Ca^2+-sensitive fluorescence of Fluo-4 was measured over real-time with a FACsScan flow cytometer and CellQuest software (BD Biosciences) at room temperature under constant stirring (500 rpm). Fluorescent data were acquired continuously up to 1024 seconds at 1-second intervals. The samples were analyzed for 45 seconds to establish basal state, removed from the nozzle to add the stimuli, and then returned to the nozzle. Mean channel fluorescence over time was analyzed with FlowJo (TreeStar, Ashland, Oreg., USA) software. […] 500 μl of these chemerin-loaded cells were added to mCMKLR1/L1.2 cells loaded with Fluo4-AM, and calcium mobilization was evaluated.

In another test the target is T3, mCMKLR1 (Mus musculus, UniProt P97468).
T3 construct: expressed in transfected cells; host or cells: L1.2 mouse pre-B lymphoma cells
T3 sequence (P97468 1-371): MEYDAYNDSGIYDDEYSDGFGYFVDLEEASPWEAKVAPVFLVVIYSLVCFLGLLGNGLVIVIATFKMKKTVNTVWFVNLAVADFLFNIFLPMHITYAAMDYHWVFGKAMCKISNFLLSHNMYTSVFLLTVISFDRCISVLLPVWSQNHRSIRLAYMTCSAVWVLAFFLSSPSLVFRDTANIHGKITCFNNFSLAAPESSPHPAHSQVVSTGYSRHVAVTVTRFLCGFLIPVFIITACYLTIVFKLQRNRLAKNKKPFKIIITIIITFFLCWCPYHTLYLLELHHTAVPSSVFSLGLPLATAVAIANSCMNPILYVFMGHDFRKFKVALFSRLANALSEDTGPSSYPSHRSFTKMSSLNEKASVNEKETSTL
In words: in vitro transwell chemotaxis, mCMKLR1-HA/L1.2 cells. The settings on record: range of doses. The method, then: as §1

For the substance “chemerin: protein ligand for signaling receptor CMKLR1; serum form human chemerin expressed in baculovirus-infected insect cells, His8-tag removed”, in test [1], the “chemerin internalization (acid wash)” value was “did not internalize”. In addition, the “synergy of CCL2 and chemerin in transwell migration” value in the test with mCCRL2 [2] (CCL2 with chemerin) is listed as “did not synergize”. For the same substance, the transwell migration entry was “neither human nor mouse CCRL2-HA/L1.2 transfectants migrated” with mCCRL2 [2] (range of doses, CXCL12 and CCL19 act via endogenous CXCR4 and CCR7); “neither human nor mouse CCRL2-HA/L1.2 transfectants migrated” with huCCRL2 [3]; “robust, dose dependent migratory response” with mCMKLR1. The ligand-induced receptor internalization result in the test with huCCRL2 [4] was “failed to internalize”. Moreover, in the test with mCCRL2 [5], the “agonism, intracellular calcium mobilization” value was “neither CCL2 nor chemerin functioned as agonists”.
